From US12318456B2, “Therapeutic nanoparticles containing argonaute for microRNA delivery and compositions and methods using same” (KOC UNIVERSITESI, priority 2018, dated 2025)

How the values were obtained:
miR-376b = test: Flag immunoprecipitation of AGO2 and its domains, miRNA level by Taqman QPCR; assay type: binding; conditions: flag tagged proteins overexpressed in HEK293T cells, immunoprecipitated with flag beads
Excerpt: The miRNA is anchored in AGO2 protein and makes several kinks and turns along the binding groove (Elkayam et al. Cell. 2012. 150:100-110). A binding pocket composed of residues from PAZ and PIWI domains as previously observed interacts with miRNA (Boland et al. EMBO Rep. 2010. 11:522-527; Lingel et al. Nat Struct Mol Biol. 2004. 11:576-577; Schirle et al. Science. 2014. 346:608-613; Wang et al. Nature. 2008. 456:209-213). To determine which domain of AGO2 protein have the key role in miRNA binding affinity, flag tagged AGO2 protein and its domains, PAZ and PIWI, were overexpressed in HEK293T cells in the presence or absence of miR-376b overexpression and they immunoprecipitated with flag beads. […] It can be concluded that each domain of AGO2 protein is essential for the highest binding affinity (FIG. 10).

[1] = Hydrodynamic properties of SPIONs by dynamic light scattering; assay type: physicochemical; conditions: medium PBS; for HDR Z-average (hydrodynamic size): dynamic light scattering
Description: Hydrodynamic properties of SPIONs were measured after each conjugation step to monitor colloidal stability (Table 2).

Substance	miRNA binding affinity (miR-376b) (miR-376b)	HDR Z-average (hydrodynamic size) [1]	PDI [1]	Zeta Potential [1]
PAZ: flag tagged AGO2 fragment, aa1-480	partial role	–	–	–
SPION/AGO2/PEG-MI: SPION/AGO2 reacted with NH2-PEG-Mal (2000 Da) linker	–	30 nm	0.59	−21 mV
SPION/AGO2: AGO2 protein covalently attached to SPION/PAA via amide bond (EDC/NHS)	–	20 nm	0.43	−23 mV
full length AGO2 protein: flag tagged full length Argonaute-2 protein overexpressed in HEK293T cells	greater affinity	–	–	–
